One block for each binder: values may come before it.
Tests used:
[1] = biological target: the molecule itself; assay: sedimentation equilibrium analytical ultracentrifugation for self-association, at several pH values and ionic strengths (Table 10, State 'M')
Protocol: Sedimentation Equilibrium. Analytical ultracentrifugation experiments were performed on a Beckman model XL-A ultracentrifuge at 20° C. at rotor speeds 23,000, 28,000 and 40,000 rpm. Experiments were carried out at two different starting concentrations in different buffers and ionic strength to study their effect on dimerization (Table 10). Absorbance was measured at 280 nm and the data was collected as an average of five successive radial scans using a 0.003 cm step size. The data was fitted to the following equation: […]
Sedimentation equilibrium. Chemokine ability to associate is dependent on solution conditions such as pH and ionic strength. The association properties of the MPIF-1 and the full length MPIF-1 were studied using ultracentrifugation methods at different pH and ionic strengths. […] The monomeric state of MPIF-1 is consistent with the NMR structure and also from the calculation of the correlation time from ¹⁵N dynamics.

[2] = biological target: cell surface receptor for MIP-1α (on human monocytes) (human); assay: cell-based or functional assay

B1: MPIF-1Δ23 (truncated human MPIF-1 lacking the 23 N-terminal amino acids of the mature protein, with an N-terminal Met; 77 amino acids, 8.85 kDa) (ligand)
chain: MDRFHATSADCCISYTPRSIPCSLLESYFETNSECSKPGVIFLTKKGRRFCANPSDKQVQVCMRMLKLDTRIKTRKN
notes: Delta 23
binding result [1]: no binding

intracellular calcium mobilization in human monocytes, activity relative to wild type MPIF-1 [2]: ~2 fold
B2: MPIF-1 Mutant-1 (the 'mature' MPIF-1 for E. coli expression, wild type with an N-terminal methionine) (ligand)
chain: MRVTKDAETEFMMSKLPLENPVLLDRFHATSADCCISYTPRSIPCSLLESYFETNSECSKPGVIFLTKKGRRFCANPSDKQVQVCMRMLKLDTRIKTRKN

Source: patent US20030114379A1 (Human Genome Sciences, published 2003)
